From publication PMC2849977 (2009)

Target: histone H3 peptide H3K4me3-K9me2 1-24 (Homo sapiens, UniProt P68431, H3K4me3+H3K9me2)
Test: ITC

Row | Kd | Binder
1 | ~1000 nM | PHF8 1-447 (protein) MNRSRAIVQRGRVLPPPAPLDTTNLAGRRTLQGRAKMASVPVYCLCRLPYDVTRFMIECDMCQDWFHGSCVGVEEEKAADIDLYHCPNCEVLHGPSIMKKRRGSSKGHDTHKGKPVKTGSPTFVRELRSRTFDSSDEVILKPTGNQLTVEFLEENSFSVPILVLKKDGLGMTLPSPSFTVRDVEHYVGSDKEIDVIDVTRQADCKMKLGDFVKYYYSGKREKVLNVISLEFSDTRLSNLVETPKIVRKLSWVENLWPEECVFERPNVQKYCLMSVRDSYTDFHIDFGGTSVWYHVLKGEKIFYLIRPTNANLTLFECWSSSSNQNEMFFGDQVDKCYKCSVKQGQTLFIPTGWIHAVLTPVDCLAFGGNFLHSLNIEMQLKAYEIEKRLSTADLFRFPNFETICWYVGKHILDIFRGLRENRRHPASYLVHGGKALNLAFRAWTRKE
2 | ~300 nM | KIAA1718 1-488 (protein) MAGAAAAVAAGAAAGAAAAAVSVAAPGRASAPPPPPPVYCVCRQPYDVNRFMIECDICKDWFHGSCVGVEEHHAVDIDLYHCPNCAVLHGSSLMKKRRNWHRHDYTEIDDGSKPVQAGTRTFIKELRSRVFPSADEIIIKMHGSQLTQRYLEKHGFDVPIMVPKLDDLGLRLPSPTFSVMDVERYVGGDKVIDVIDVARQADSKMTLHNYVKYFMNPNRPKVLNVISLEFSDTKMSELVEVPDIAKKLSWVENYWPDDSVFPKPFVQKYCLMGVQDSYTDFHIDFGGTSVWYHVLWGEKIFYLIKPTDENLARYESWSSSVTQSEVFFGDKVDKCYKCVVKQGHTLFVPTGWIHAVLTSQDCMAFGGNFLHNLNIGMQLRCYEMEKRLKTPDLFKFPFFEAICWFVAKNLLETLKELREDGFQPQTYLVQGVKALHTALKLWMKKELVSEHAFEIPDNVRPGHLIKELSKVIRAIEEENGKPVKSQGI
